The series deals with the molecule itself. The experiment in a line: non-reducing SDS-PAGE with Western blot; lysates of stably transfected HEK293 cells denatured in sample buffer with or without a reducing agent; blotted with anti-HA. (A western blot detects proteins with antibodies after separation by electrophoresis.)

As usually defined, the stoichiometry N is the number of molecules, sites or subunits per partner or assembly.

B1: HA-tagged WT Endoglin (receptor, UniProt P17813 26-658, looked up)
chain: ETVHCDLQPVGPERGEVTYTTSQVSKGCVAQAPNAILEVHVLFLEFPTGPSQLELTLQASKQNGTWPREVLLVLSVNSSVFLHLQALGIPLHLAYNSSLVTFQEPPGVNTTELPSFPKTQILEWAAERGPITSAAELNDPQSILLRLGQAQGSLSFCMLEASQDMGRTLEWRPRTPALVRGCHLEGVAGHKEAHILRVLPGHSAGPRTVTVKVELSCAPGDLDAVLILQGPPYVSWLIDANHNMQIWTTGEYSFKIFPEKNIRGFKLPDTPQGLLGEARMLNASIVASFVELPLASIVSLHASSCGGRLQTSPAPIQTTPPKDTCSPELLMSLIQTKCADDAMTLVLKKELVAHLKCTITGLTFWDPSCEAEDRGDKFVLRSAYSSCGMQVSASMISNEAVVNILSSSSPQRKKVHCLNMDSLSFQLGLYLSPHFLQASNTIEPGQQSFVQVRVSPSVSEFLLQLDSCHLDLGPEGGTVELIQGRAAKGNCVSLLSPSPEGDPRFSFLLHFYTVPIPKTGTLSCTVALRPKTGSQDQEVHRTVFMRLNIISPDLSGCTSKGLVLPAVLGITFGAFLIGALLTAALWYIYSHTRSPSKREPVVAVAAPASSESSSTNHSIGSTQSTPCSTSSMA
notes: Endoglin (CD105), wild type, encoded by ENG; Seen as a dimer on a non-reducing gel; also called Endoglin WT; ENG-WT; source: HEK293, stably transfected (pcDNA3.0), in lysate
For the protein B1, the “stoichiometry N” value is 2.

B2: HA-tagged Endoglin mutant variant V105D (receptor, UniProt P17813 26-658, looked up)
chain: ETVHCDLQPVGPERGEVTYTTSQVSKGCVAQAPNAILEVHVLFLEFPTGPSQLELTLQASKQNGTWPREVLLVLSVNSSDFLHLQALGIPLHLAYNSSLVTFQEPPGVNTTELPSFPKTQILEWAAERGPITSAAELNDPQSILLRLGQAQGSLSFCMLEASQDMGRTLEWRPRTPALVRGCHLEGVAGHKEAHILRVLPGHSAGPRTVTVKVELSCAPGDLDAVLILQGPPYVSWLIDANHNMQIWTTGEYSFKIFPEKNIRGFKLPDTPQGLLGEARMLNASIVASFVELPLASIVSLHASSCGGRLQTSPAPIQTTPPKDTCSPELLMSLIQTKCADDAMTLVLKKELVAHLKCTITGLTFWDPSCEAEDRGDKFVLRSAYSSCGMQVSASMISNEAVVNILSSSSPQRKKVHCLNMDSLSFQLGLYLSPHFLQASNTIEPGQQSFVQVRVSPSVSEFLLQLDSCHLDLGPEGGTVELIQGRAAKGNCVSLLSPSPEGDPRFSFLLHFYTVPIPKTGTLSCTVALRPKTGSQDQEVHRTVFMRLNIISPDLSGCTSKGLVLPAVLGITFGAFLIGALLTAALWYIYSHTRSPSKREPVVAVAAPASSESSSTNHSIGSTQSTPCSTSSMA
notes: Endoglin (CD105) with the HHT1 disease-causing missense variant V105D, made by site directed mutagenesis; Retained in the ER; also called ENG-V105D; p; V105D; source: HEK293, stably transfected (pcDNA3.0), in lysate
On to B2, for which the “stoichiometry N” value was determined as 2.

B3: HA-tagged Endoglin mutant variant P165L (receptor, UniProt P17813 26-658, looked up)
chain: ETVHCDLQPVGPERGEVTYTTSQVSKGCVAQAPNAILEVHVLFLEFPTGPSQLELTLQASKQNGTWPREVLLVLSVNSSVFLHLQALGIPLHLAYNSSLVTFQEPPGVNTTELPSFPKTQILEWAAERGPITSAAELNDLQSILLRLGQAQGSLSFCMLEASQDMGRTLEWRPRTPALVRGCHLEGVAGHKEAHILRVLPGHSAGPRTVTVKVELSCAPGDLDAVLILQGPPYVSWLIDANHNMQIWTTGEYSFKIFPEKNIRGFKLPDTPQGLLGEARMLNASIVASFVELPLASIVSLHASSCGGRLQTSPAPIQTTPPKDTCSPELLMSLIQTKCADDAMTLVLKKELVAHLKCTITGLTFWDPSCEAEDRGDKFVLRSAYSSCGMQVSASMISNEAVVNILSSSSPQRKKVHCLNMDSLSFQLGLYLSPHFLQASNTIEPGQQSFVQVRVSPSVSEFLLQLDSCHLDLGPEGGTVELIQGRAAKGNCVSLLSPSPEGDPRFSFLLHFYTVPIPKTGTLSCTVALRPKTGSQDQEVHRTVFMRLNIISPDLSGCTSKGLVLPAVLGITFGAFLIGALLTAALWYIYSHTRSPSKREPVVAVAAPASSESSSTNHSIGSTQSTPCSTSSMA
notes: Endoglin (CD105) with the HHT1 disease-causing missense variant P165L, made by site directed mutagenesis; Retained in the ER; also called ENG-P165L; p; P165L; source: HEK293, stably transfected (pcDNA3.0), in lysate
On to B3, for which the “stoichiometry N” value was 2.
